From patent US20100015155A1 (Eli Lilly, published 2010) come the findings set out here.

Experiment [1] deals with T1, human soluble Abeta (1-40) (human, UniProt P05067 672-711).
T1 construct: domain: Abeta (1-40); The numbers 1-40 count on the Aβ peptide, not on the APP precursor entry; also called Human Abeta (1-40); human abeta
The experiment in a line: KinExA equilibrium, ratio of KD values. On the procedure: (§1) KinExA analysis is used as an orthogonal approach to measure binding affinity through equilibrium binding analysis due to the slow off-rate of the antigen Fab complex. A KinExA 3000 instrument (Sapidyne Inst. Inc.) is used to measure binding kinetics. Briefly, the antigen is covalently coupled to sepharose beads and the binding of free Fab/Fab-PEG to the beads is detected on the instrument. […] After the incubation, free Fab/Fab-PEG in each equilibrated sample is determined on the KinExA 3000 according to the manufacturer's instructions. Kd values are determined by n-Curve Analysis using KinExA 3000 software.

Experiment [2] addresses T1, human soluble Abeta (1-40). Briefly: KinExA equilibrium, antigen on sepharose beads, soluble Abeta (1-40) titrated, 37 C; 1A1 Fab, not PEGylated. On the procedure:
as §1

T1 sequence (P05067 672-711 limits assumed): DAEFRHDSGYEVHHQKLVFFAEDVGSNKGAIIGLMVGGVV

B1: 1A1-Fab (humanized antibody Fab fragment, LCVR of SEQ ID NO: 1 and HCVR of SEQ ID NO: 2) (Fab, V domains shown)
VH: EVQLVESGGGLVKPGGSLRLSCAASGYTFSRYSMSWVRQAPGKGLEWVGQINIRGCNTYYPDTVKGRFTISRDDSKNTLYLQMNSLKTEDTAVYYCTTGDFWGQGTLVTVSS
VL: DIVMTQTPLSLSVTPGQPASISCSSSQSLIYSDGNAYLHWYLQKPGQSPQLLIYKVSNRFSGVPDRFSGSGSGTDFTLKISRVEAEDVGVYYCTQSTHSPWTFGGGTKVEIK
notes: Fab without PEG; CH1 and CL are not; The light chain is human kappa, since it is captured or detected with anti-human kappa; also called humanized 1A1-Fab; 1A1 N56C Fab
On to B1, for which the “fold affinity against murine 266 Fab” value in experiment [1] was around 10 fold. Besides, the affinity in experiment [2], expressed as Kd, was 0.019 nM.
